For experiment [1], the target named is T1, human VEGF (ACRO, His tag) (human, UniProt P15692-4 27-191, limits assumed).
T1 construct: not shown: His tag
The experiment can be described thus: ELISA, human VEGF (His tag) coated, anti-human IgG Fc-HRP. On the procedure: (§1) The binding of the antibody to human PD-1 was detected by ELISA. 1 μg/mL human PD-1 (ACRO, His tag) was coated on an ELISA plate overnight and blocked. Subsequently, the plate was added with gradient dilutions of the bispecific antibody and the control antibody, incubated and washed. Then, the plate was added with HRP-labeled anti-human IgG Fc secondary antibody, incubated and washed. After TMB solution was added for color development, the OD450 absorbance value was read on a microplate reader (see Table 12). […] Subsequently, the plate was added with gradient dilutions of the sample to be tested and the control antibody, incubated and washed. Then, the plated was added with HRP-labeled anti-human IgG Fc secondary antibody, incubated and washed. After TMB solution was added for color development, the OD450 absorbance value was read on a microplate reader (see Table 13). […] (The control substances were all obtained by in-house expression and purification)
A general note: In an ELISA, binding on a coated surface is turned into a signal by an enzyme label.

For experiment [2], the target named is T2, biotin-labeled human VEGF (ACRO, biotinylated protein) (human, UniProt P15692-4 27-191, limits assumed, biotinylated (site not stated)). The experiment can be described thus: competition ELISA: human VEGFR2 (Fc tag) coated, antibody mixed with biotinylated human VEGF, streptavidin-HRP. Here is the method: (§2) ELISA plates were respectively coated with 2 μg/mL human VEGFR1 and 5 μg/mL human VEGFR2 (in-house constructed and expressed, Fc tag) overnight, washed and blocked. […] Then the plates were added with HRP-labeled streptavidin and incubated for 1 hour. After TMB solution was added for color development, the OD450 nm absorbance value was read on a microplate reader.

Experiment [3] has as its target T3, human PD-1 (ACRO, His tag) (human, UniProt Q15116 25-167).
T3 construct: not shown: His tag
The experiment can be described thus: dual (bridging) ELISA: human PD-1 (His tag) coated, antibody, then biotinylated human VEGF, streptavidin-HRP. On the procedure:
(§3) The order of the binding to VEGF and PD-1 was changed for dual ELISA detection. A 96-well ELISA plate was coated with 1 μg/mL human PD-1 (ACRO, His tag) overnight, washed and blocked for 1 hour. […] TMB solution was added for color development, and the OD450 nm absorbance value was read on a microplate reader.

The target in experiment [4] is T4, human PD-1 (ACRO, Fc tag) (human, UniProt Q15116 25-167).
T4 construct: not shown: Fc tag
The experiment can be described thus: competition ELISA: human PD-1 (Fc tag) coated, antibody mixed with human PD-L1 (His tag); text: 'except for #48, which only bound to VEGF'. On the procedure:
(§4) An ELISA plate was coated with 1 ug/mL of human PD-1 (ACRO, Fc tag) overnight, washed and blocked. […] Then the plate was added with HRP-labeled anti-His antibody, and incubated for 1 hour. After TMB solution was added for color development, the OD450 absorbance value was read on a microplate reader (see Table 16).

Experiment [5] has as its target T3, human PD-1 (ACRO, His tag). The experiment can be described thus: dual (bridging) ELISA: human PD-1 (His tag) coated, antibody, then biotinylated human VEGF; 'A single targeting antibody failed to bind to two targets simultaneously'. On the procedure:
as §3

A further experiment concerns the target VEGF. The experiment can be described thus: cell-based or functional assay.
In experiment [6] the target is T3, human PD-1 (ACRO, His tag). The experiment can be described thus: ELISA, human PD-1 (His tag) coated, anti-human IgG Fc-HRP. On the procedure: as §1
Experiment [7] has as its target monkey PD-1 (ACRO, His tag) (monkey, UniProt B0LAJ3 25-170). The experiment can be described thus: ELISA, monkey PD-1 (His tag) coated, anti-human IgG Fc-HRP. On the procedure:
The binding of candidate molecules and competitor to antigens of different species was detected by ELISA. […] The binding of antibodies to monkey PD-1 was detected by ELISA. An ELISA plate was coated with 1 μg/mL monkey PD-1 (ACRO, His tag) overnight and blocked. Subsequently, the plate was added with gradient dilutions of the sample to be tested and the control antibody, incubated and washed. Then, the plate was added with HRP-labeled anti-human IgG Fc secondary antibody, incubated and washed. After TMB solution was added for color development, the OD450 absorbance value was read on a microplate reader (see Table 15).

Experiment [8] has as its target human VEGF (Sino Biological, no label) (human, UniProt P15692-4 27-191, limits assumed). The experiment can be described thus: dual (bridging) ELISA: human VEGF (no label) coated, antibody, then human PD-1 (His tag), anti-His-HRP. Here is the method:
Biological, no label) overnight, washed and blocked for 1 hour. Subsequently, the plate was added with gradient dilutions of the test antibody, incubated for 2 hours, then added with 1 μg/mL of human PD-1 (ACRO, His tag), incubated for 2 hours, washed, and incubated with HRP-labeled anti-His antibody for 1 hour. After TMB solution was added for color development, the OD450 nm absorbance value was read on a microplate reader.

The target of experiment [9] is T4, human PD-1 (ACRO, Fc tag). The experiment can be described thus: competition ELISA: human PD-1 (Fc tag) coated, antibody mixed with human PD-L1 (His tag), anti-His-HRP. On the procedure: as §4
The target in experiment [10] is T2, biotin-labeled human VEGF (ACRO, …). The experiment can be described thus: competition ELISA: human VEGFR1 (Fc tag) coated, antibody mixed with biotinylated human VEGF, streptavidin-HRP. Here is the method: as §2
The target in a further experiment is human VEGF-A (human, UniProt P15692-4 27-191, limits assumed). The experiment can be described thus: ELISA, VHH-Fc expression supernatant on human VEGF-A.
In a further experiment the target is T5, mouse VEGF-A (mouse, UniProt Q00731-2 27-190, limits assumed).
T5 sequence (looked up): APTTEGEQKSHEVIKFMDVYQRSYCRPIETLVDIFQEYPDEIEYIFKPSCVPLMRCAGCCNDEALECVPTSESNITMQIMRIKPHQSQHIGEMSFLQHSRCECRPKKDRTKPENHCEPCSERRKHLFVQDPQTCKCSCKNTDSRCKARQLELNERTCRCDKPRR
The experiment can be described thus: ELISA, VHH-Fc expression supernatant on mouse VEGF-A.

Chain of monkey PD-1 (ACRO, His tag) (B0LAJ3 entry or part of it limits assumed, form in doubt): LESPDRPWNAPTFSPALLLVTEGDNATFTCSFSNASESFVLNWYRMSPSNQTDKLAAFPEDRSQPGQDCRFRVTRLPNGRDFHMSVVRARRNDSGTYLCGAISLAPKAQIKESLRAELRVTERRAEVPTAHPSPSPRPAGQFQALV
T3 sequence (Q15116 25-167 limits assumed): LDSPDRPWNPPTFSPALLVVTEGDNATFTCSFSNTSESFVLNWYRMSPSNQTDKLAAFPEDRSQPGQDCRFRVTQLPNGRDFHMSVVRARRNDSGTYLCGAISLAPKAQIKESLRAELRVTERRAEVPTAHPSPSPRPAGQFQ
T4 sequence (Q15116 25-167 limits assumed): as above

B1: Strain #48 VHH (VHH, not shown: a dimerising Fc or GST)
VHH: EVQLLESGGGLVQPGGSLRLSCAASGFTFSTSTMSWYRQAPGKERELVSFITSAGATTYYADSVKGRFTMSRDNSKNTVYLQMNSLRAEDTAVYYCRALVTLWNVYWGQGTLVTVSS
notes: Humanized, stabilized variant of #6 (11 Kabat-numbered mutations)
For B1, in experiment [1], it took 0.608 nM to reach a half-maximal effect (EC50). Moreover, the entries for the “TOP OD” value in experiment [1] and in experiment [3] were 3.09 OD450 and 0.061 OD450, respectively. In addition, the half-maximal inhibitory concentration (IC50) in experiment [2] was found to be 5.84 nM. Moreover, the binding result in experiment [4] and in experiment [5] was “no binding” in each case.

B2: #16 bispecific antibody (bispecific antibody, human IgG1, kappa)
heavy: QVQLVQSGVEVKKPGASVKVSCKASGYTFTNYYMYWVRQAPGQGLEWMGGINPSNGGTNFNEKFKNRVTLTTDSSTTTAYMELKSLQFDDTAVYYCARRDYRFDMGFDYWGQGTTVTVSSASTKGPSVFPLAPSSKSTSGGTAALGCLVKDYFPEPVTVSWNSGALTSGVHTFPAVLQSSGLYSLSSVVTVPSSSLGTQTYICNVNHKPSNTKVDKKVEPKSCDKTHTCPPCPAPEAEGAPSVFLFPPKPKDTLMISRTPEVTCVVVDVSHEDPEVKFNWYVDGVEVHNAKTKPREEQYNSTYRVVSVLTVLHQDWLNGKEYKCKVSNKALPSSIEKTISKAKGQPREPQVYTLPPSREEMTKNQVSLTCLVKGFYPSDIAVEWESNGQPENNYKTTPPVLDSDGSFFLYSKLTVDKSRWQQGNVFSCSVMHEALHNHYTQKSLSLSPGEVQLLESGGGLVQPGGSLRLSCAASGFTFSTSTMSWYRQAPGKERELVSFITSAGATTYYADSVKGRFTMSRDNSKNTVYLQMNSLRAEDTAVYYCRALVTLWNVYWGQGTLVTVSS
light: EIVLTQSPATLSLSPGERATLSCRASKGVSTSGYSYLHWYQQKPGQAPRLLIYLASYLESGVPARFSGSGSGTDFTLTISSLEPEDFAVYYCQHSRDLPLTFGGGTKVEIKRTVAAPSVFIFPPSDEQLKSGTASVVCLLNNFYPREAKVQWKVDNALQSGNSQESVTEQDSKDSTYSLSSTLTLSKADYEKHKVYACEVTHQGLSSPVTKSFNRGEC
notes: Pembrolizumab-based anti-PD-1 IgG with #48 VHH at the C-terminus of the heavy chain; 2+2 valency; functionally silent IgG1 Fc (AEASS)
For B2, the “maximum inhibition rate (HUVEC proliferation)” value with VEGF is approximately 60%. Besides, the EC50 in experiment [6] was 0.114 nM; in experiment [1], 0.579 nM; in experiment [7] it was 0.171 nM; in experiment [8], 0.326 nM; in experiment [3] it was 0.117 nM. Further, the “TOP OD” value is 2.58 OD450 in experiment [6], 1.75 OD450 in experiment [1], 3.38 OD450 in experiment [7] and 3.65 OD450 in experiment [3]. For the same molecule, the figures for the IC50 in experiment [9], in experiment [10] and in experiment [2] were 2.53 nM, 0.507 nM and 3.25 nM, respectively.

B3: Strain #6 VHH (Fc fusion)
chain: QVQLQESGGGLVQPGGSLRLSCAASGFTFSTSTMSWYRQAPGKERELVAFITSAGATTNYADSVKDRFTMSRDNDKNTVYLQMNVLKPEDTAMYYCRALVTLWNVYWGQGTQVTVSS
notes: also called strain 6 (#6); not shown: Fc of the VHH-Fc construct
For B3, the results for the EC50 in the experiment with human VEGF-A and with mouse VEGF-A were 9.33 ng/mL and 6.46 ng/mL, respectively.

B4: Bevacizumab (antibody, V domains shown)
VH: EVQLVESGGGLVQPGGSLRLSCAASGYTFTNYGMNWVRQAPGKGLEWVGWINTYTGEPTYAADFKRRFTFSLDTSKSTAYLQMNSLRAEDTAVYYCAKYPHYYGSSHWYFDVWGQGTLVTVSS
VL: DIQMTQSPSSLSASVGDRVTITCSASQDISNYLNWYQQKPGKAPKVLIYFTSSLHSGVPSRFSGSGSGTDFTLTISSLQPEDFATYYCQQYSTVPWTFGQGTKVEIK
Take B4: the “TOP OD” value came out at 0.151 OD450 in experiment [6], 0.127 OD450 in experiment [7] and 0.067 OD450 in experiment [3].

What is called EC50 is the concentration that produces a half-maximal response. In general, IC50 refers to the concentration that gives 50% inhibition.

Values taken from patent publication US20260055173A1 (published 2026).
